Measured values published in US20190046655A1 (ARBELE, published 2019).

Molecular target: T1, cadherin-17 (CDH17), ELISA antigen (UniProt Q12864 23-787, limits assumed)
T1 construct: also called liver-intestine cadherin
Assay: ELISA

Row | Kd [nM] | Binder
1 | 11.9 | Lic3 scFv (scFv, V domains shown, Tested as a single-chain Fv; also called scFv lic 3; mouse CDH17 antibody Lic3 scFv) VH: EVQLVESGGGLVKPGGSLKLSCAASGFSFSDYYMYWVRQAPEKRLEWVASISFDGTYTYYTDRVKGRFTISRDNAKNNLYLQMSSLKSEDTAMYYCARDRPAWFPYWGQGTLVTVSA VL: DVLMTQIPLSLTVSLGDQASISCRSSQSIVHSNGNTYLEWYLQRPGQSPKLLIYKVSNRFSGVPDRFSGSGSGTDFTLKISRVEAEDLGVYYCFQGSHVPLTFGAGTKLELK
2 | 22.1 | Lic5 scFv (scFv, V domains shown, Tested as a single-chain Fv; also called scFv lic5; mouse CDH17 antibody Lic5 scFv) VH: EVQLEESGGGLVKPGGSLKLPCAASGSSFSDFYMYWVRQTPEKRLEWVASISFDGTYTYYTDRVKGRFTISRDNAKNNLYLQMSSLKSEDTAMYYCARDRPAWFPYWGQGTLVTVSA VL: DIVLTQTTLSLNVSLGDQASISCRSSQSIVHSNGNTYLEWYLQRPGQSPKLLIYKVSNRFSGVPDRFSGSGSGTDFTLKISRVEAEDLGVYYCFQGSHVPLTFGAGTKLELKR
